Source: publication PMC12406181 (2025)

Target: T1, HER2-DIVMP (HER2 domain IV model receptor) domain IV fragment (Homo sapiens, UniProt P04626)
T1 chain: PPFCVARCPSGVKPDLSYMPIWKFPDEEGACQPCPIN
Experiment: fluorescence spectroscopy titration

B1: A9-PEG-A9 dimer (peptide)
chain: QDVNTAVAW
modifications: not fully specified; two A9 chains N-terminally linked via PEG (1 kDa), C-terminal amide; HER2-DIVMP is a synthetic two-chain disulfide-linked peptide
- Kd: 5.7 nM
